Assay [1] addresses Recombinant C4b α chain (pig). Kind of assay: SPR; Biacore 8K, single-cycle; C4bα and C4bβ covalently immobilised on CM5 chip (about 1500 RU); CR1-like fragments or mutant as mobile phase, 1.56 × 10^-2 to 4 μM; 25 °C; 10 mM HEPES pH 7.4, 150 mM NaCl, 0.05% Tween-20; apparent KD = kd/ka.
The target in assay [2] is Recombinant C4b β chain (pig). The assay is described as above.

This note sets out measurements from article PMC12846707.

For the substance “118I mutant of CR1-like CCPs 1-3 (domain or fragment)”, the Kd in assay [1] came out at 271 nM; in assay [2], 1200 nM.
